Biological target: human β1-adrenergic receptor (human, UniProt P08588 1-477)
Assay: radioligand saturation binding, transfected CHO-K1

Sequence of human β1-adrenergic receptor (P08588 whole entry): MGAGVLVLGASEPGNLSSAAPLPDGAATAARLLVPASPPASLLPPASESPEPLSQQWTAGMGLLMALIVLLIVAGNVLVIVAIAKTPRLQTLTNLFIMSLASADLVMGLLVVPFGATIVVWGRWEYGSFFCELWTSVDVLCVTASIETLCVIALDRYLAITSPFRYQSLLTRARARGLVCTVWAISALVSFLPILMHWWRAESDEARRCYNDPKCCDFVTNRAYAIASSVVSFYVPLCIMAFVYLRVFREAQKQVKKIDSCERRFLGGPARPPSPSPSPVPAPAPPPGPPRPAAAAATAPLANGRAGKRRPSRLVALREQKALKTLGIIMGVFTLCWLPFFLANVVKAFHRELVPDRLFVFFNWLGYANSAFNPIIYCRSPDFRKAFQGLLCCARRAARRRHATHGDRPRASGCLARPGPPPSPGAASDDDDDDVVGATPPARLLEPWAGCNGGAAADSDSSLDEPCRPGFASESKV

- Kd: 493 nM
B1: recombinant human zinc-α2-glycoprotein (ZAG) (ligand)
chain: QENQDGRYSLTYIYTGLSKHVEDVPAFQALGSLNDLQFFRYNSKDRKSQPMGLWRQVEGMEDWKEDSQLQKAREDMETLKDIVEYYNDSNGSHVLQGRFGCEIENNRSSGAFWKYYYDGKDYIEFNKEIPAWVPFDPAAQITKQKWEAEPVYVQRAKAYLEEECPATLRKYLKYSKNILDRQDPPSVVVTSHQAPGEKKKLKCLAYDFYPGKIDVHWTRAGQVQEPELRGDVLHNGNGTYQSWVVVAVPPQDTAPYSCHVQHSSLAQPLVVPWEAS
modifications: 125I label (iodo bead labelling) in the membrane binding studies; labelled residues not stated

From patent US20240301022A1 (published 2024)
